Experimental findings from IntAct's records for PubMed 20562859 are described below.

To fix the notation:
B1: Gamma-aminobutyric acid receptor-associated protein (Homo sapiens), O95166 (parent)
chain: MKFVYKEEHPFEKRRSEGEKIRKKYPDRVPVIVEKAPKARIGDLDKKKYLVPSDLTVGQFYFLIRKRIHLRAEDALFFFVNNVIPPTSATMGQLYQEHHEEDFFLYIAYSDESVYGL
partner: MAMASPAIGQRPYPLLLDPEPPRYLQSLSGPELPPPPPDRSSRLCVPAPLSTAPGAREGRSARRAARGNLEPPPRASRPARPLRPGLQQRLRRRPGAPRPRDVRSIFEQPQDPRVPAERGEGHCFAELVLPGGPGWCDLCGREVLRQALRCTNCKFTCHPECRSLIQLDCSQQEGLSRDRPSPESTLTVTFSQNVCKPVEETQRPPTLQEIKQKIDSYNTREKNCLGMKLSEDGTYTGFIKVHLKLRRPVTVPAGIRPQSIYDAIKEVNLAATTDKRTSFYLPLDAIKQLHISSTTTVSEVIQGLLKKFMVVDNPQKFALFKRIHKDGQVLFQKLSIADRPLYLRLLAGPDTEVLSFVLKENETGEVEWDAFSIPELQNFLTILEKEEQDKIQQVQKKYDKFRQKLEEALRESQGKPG
B2: Gamma-aminobutyric acid receptor-associated protein (Homo sapiens), O95166 (parent)
chain: B1 chain
partner: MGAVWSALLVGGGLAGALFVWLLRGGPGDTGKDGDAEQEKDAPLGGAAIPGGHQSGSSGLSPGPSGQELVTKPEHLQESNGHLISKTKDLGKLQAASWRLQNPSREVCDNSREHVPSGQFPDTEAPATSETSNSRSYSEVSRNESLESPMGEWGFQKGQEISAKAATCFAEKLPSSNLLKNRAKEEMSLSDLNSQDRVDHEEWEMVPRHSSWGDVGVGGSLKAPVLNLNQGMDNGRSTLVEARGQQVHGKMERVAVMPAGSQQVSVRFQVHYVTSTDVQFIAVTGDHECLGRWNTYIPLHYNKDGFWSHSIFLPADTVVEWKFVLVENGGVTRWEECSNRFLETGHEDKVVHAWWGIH
B3: Gamma-aminobutyric acid receptor-associated protein (Homo sapiens), O95166 (parent)
chain: B1 chain
partner: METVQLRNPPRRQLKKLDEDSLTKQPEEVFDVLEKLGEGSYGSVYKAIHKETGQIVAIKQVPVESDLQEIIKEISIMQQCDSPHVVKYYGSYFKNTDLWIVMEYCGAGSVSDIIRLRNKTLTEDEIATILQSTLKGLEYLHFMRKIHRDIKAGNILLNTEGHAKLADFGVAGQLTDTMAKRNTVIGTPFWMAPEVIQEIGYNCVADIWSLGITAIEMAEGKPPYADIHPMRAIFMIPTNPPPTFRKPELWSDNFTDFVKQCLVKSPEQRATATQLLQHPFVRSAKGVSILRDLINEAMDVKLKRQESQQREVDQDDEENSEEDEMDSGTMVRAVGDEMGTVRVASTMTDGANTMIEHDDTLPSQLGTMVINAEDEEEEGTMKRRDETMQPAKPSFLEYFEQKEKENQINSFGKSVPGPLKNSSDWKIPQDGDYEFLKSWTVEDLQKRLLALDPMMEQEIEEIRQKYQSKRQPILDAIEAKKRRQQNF
B4: Gamma-aminobutyric acid receptor-associated protein (Homo sapiens), O95166 (parent)
chain: B1 chain
partner: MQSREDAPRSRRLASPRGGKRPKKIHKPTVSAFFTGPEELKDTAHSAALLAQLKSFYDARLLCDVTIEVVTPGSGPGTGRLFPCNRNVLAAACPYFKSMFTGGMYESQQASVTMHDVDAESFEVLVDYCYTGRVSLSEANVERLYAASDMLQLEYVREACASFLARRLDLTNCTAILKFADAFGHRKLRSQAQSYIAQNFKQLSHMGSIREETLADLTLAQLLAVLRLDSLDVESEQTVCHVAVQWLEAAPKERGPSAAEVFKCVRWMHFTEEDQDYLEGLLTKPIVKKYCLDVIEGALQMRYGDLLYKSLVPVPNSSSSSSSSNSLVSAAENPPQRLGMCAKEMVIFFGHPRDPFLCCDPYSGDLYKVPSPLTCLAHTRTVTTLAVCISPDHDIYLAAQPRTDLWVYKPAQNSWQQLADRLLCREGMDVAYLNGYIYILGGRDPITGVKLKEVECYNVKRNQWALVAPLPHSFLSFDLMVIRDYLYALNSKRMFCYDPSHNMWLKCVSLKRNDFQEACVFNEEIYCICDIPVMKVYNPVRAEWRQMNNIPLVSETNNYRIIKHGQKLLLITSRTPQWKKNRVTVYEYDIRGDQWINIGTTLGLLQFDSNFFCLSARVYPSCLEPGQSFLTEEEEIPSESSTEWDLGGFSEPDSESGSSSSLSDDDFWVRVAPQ
B5: Gamma-aminobutyric acid receptor-associated protein (Homo sapiens), O95166 (parent)
chain: B1 chain
partner: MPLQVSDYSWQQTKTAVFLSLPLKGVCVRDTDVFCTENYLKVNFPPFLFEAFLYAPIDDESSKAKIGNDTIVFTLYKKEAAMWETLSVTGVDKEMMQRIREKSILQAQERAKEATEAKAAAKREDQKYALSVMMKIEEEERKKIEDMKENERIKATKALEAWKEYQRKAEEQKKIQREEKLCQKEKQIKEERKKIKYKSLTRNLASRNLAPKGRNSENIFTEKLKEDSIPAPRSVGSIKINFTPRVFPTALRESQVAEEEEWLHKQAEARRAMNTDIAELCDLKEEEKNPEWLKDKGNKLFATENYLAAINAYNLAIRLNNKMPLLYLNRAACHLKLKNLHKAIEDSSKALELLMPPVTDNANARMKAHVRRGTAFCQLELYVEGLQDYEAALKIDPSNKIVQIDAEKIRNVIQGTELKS
B6: Gamma-aminobutyric acid receptor-associated protein (Homo sapiens), O95166 (parent)
chain: B1 chain
partner: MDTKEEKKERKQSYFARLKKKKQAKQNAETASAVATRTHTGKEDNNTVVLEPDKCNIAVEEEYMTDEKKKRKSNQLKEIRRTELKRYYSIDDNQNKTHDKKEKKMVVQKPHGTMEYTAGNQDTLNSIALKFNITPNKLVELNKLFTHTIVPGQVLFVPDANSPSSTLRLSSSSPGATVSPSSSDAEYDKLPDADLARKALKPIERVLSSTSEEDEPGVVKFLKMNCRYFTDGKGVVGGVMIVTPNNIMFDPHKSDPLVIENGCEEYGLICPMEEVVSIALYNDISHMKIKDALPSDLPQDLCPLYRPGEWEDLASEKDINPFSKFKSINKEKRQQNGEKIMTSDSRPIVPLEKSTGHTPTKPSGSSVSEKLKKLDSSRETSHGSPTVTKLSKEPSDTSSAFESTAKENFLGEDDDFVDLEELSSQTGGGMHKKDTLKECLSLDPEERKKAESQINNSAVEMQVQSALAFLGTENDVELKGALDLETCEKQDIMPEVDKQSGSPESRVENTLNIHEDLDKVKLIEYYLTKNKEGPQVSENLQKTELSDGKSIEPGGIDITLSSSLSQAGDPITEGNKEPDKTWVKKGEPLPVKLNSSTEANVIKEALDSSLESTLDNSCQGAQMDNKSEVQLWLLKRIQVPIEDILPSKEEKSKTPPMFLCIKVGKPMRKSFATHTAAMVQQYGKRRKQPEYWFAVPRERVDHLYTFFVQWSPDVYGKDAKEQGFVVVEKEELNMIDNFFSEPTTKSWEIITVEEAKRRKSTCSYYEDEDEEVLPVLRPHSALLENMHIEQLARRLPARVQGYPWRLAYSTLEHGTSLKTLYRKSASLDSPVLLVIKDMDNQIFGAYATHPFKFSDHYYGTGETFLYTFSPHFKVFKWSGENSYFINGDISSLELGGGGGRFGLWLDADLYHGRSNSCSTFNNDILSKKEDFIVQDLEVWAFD

One test covers variants of B1. As to conditions: with rasf5_human RASSF5, Q8WWW0.
With Y49A;L50A, the “effect of a mutation on the interaction” value is “increasing interaction”.

Variants of B2 are the subject of the next test. Conditions: with stbd1_human STBD1, O95210.
Y49A;L50A: the “effect of a mutation on the interaction” value is “decreasing interaction”.

The variants in another test derive from B3. Conditions: with stk4_human STK4, Q13043.
On to R71A, for which the “effect of a mutation on the interaction” value is “increasing interaction”.

The variants in another test derive from B4. As to conditions: with kbtb6_human KBTBD6, Q86V97.
As for Y49A;L50A, the “effect of a mutation on the interaction” value was “decreasing interaction”.

In a further test the parent is B5. Conditions: with daaf4_human DNAAF4, Q8WXU2.
For Y49A;L50A, the “effect of a mutation on the interaction” value is “decreasing interaction”.

The variants in another test derive from B6. As to conditions: with ncoa7_human NCOA7, Q8NI08.
As to Y49A;L50A, the “effect of a mutation on the interaction” value was “decreasing interaction”.
